Data as given in article PMC7824274, “Separation of Coiled-Coil Structures in Lamin A/C Is Required for the Elongation of the Filament” (Cells, 2020).
Residue numbers refer to the chain shown, from its start.

Experiments:
Conditions in all cases: both partners purified
[1] = biological target: T1, lamin A/C 250-400 fragment, wild type, tag-free (human, UniProt P02545 250-400); experiment: pull-down; His-tagged lamin 1-125 (wild type or L38C, L42C) on Ni-NTA resin, lamin 250-400 fragments (wild type or cysteine mutants) as prey; oxidized (0.5 mM GSSG) and reducing (5 mM TCEP) conditions; SDS-PAGE
T1 construct: lamin A/C, human, residues 250-400 (C-terminal part of coil 2); His-tag cleaved with TEV protease; also called lamin 250-400; coil 2 fragment; source: E. coli BL21 (DE3), purified (cobalt-Talon, TEV cleavage, HiTrap Q, SEC); not shown: His-tag, N-terminal, cleaved
T1 sequence (looked up): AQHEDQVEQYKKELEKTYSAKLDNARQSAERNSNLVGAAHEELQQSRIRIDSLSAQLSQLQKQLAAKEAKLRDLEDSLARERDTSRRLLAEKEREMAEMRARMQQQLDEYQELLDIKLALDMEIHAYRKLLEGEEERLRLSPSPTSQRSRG

[2] = biological target: T2, lamin A/C 250-400 fragment, K316C (human, UniProt P02545 250-400, K316C); experiment: as above
T2 construct: lamin A/C, human, residues 250-400 with K316C; the methods say that preys were His-tag cleaved; also called lamin 250-400 K316C; source: E. coli BL21 (DE3), purified (cobalt-Talon, TEV cleavage, HiTrap Q, SEC); not shown: His-tag, N-terminal, cleaved
T2 sequence (looked up): T1 sequence (looked up) with K67C

[3] = biological target: T3, lamin A/C 250-400 fragment, Y267C (human, UniProt P02545 250-400, Y267C); experiment: as above
T3 construct: lamin A/C, human, residues 250-400 with Y267C; the methods say that preys were His-tag cleaved; also called lamin 250-400 Y267C; source: E. coli BL21 (DE3), purified (cobalt-Talon, TEV cleavage, HiTrap Q, SEC); not shown: His-tag, N-terminal, cleaved
T3 sequence (looked up): T1 sequence (looked up) with Y18C

[4] = biological target: T4, His-tagged lamin A/C 250-400 fragment, L362C (human, UniProt P02545 250-400, L362C); experiment: pull-down; His-tagged lamin 250-400 fragments on Ni-NTA resin with the lamin 1-125 fragment; reducing condition; SDS-PAGE
T4 construct: lamin A/C, human, residues 250-400 with L362C; also called His-lamin 250-400 L362C; source: E. coli BL21 (DE3), purified (cobalt-Talon, HiTrap Q, SEC); not shown: His-tag, N-terminal, kept
T4 sequence (looked up): T1 sequence (looked up) with L113C

[5] = biological target: T5, His-tagged lamin A/C 250-400 fragment, wild type (human, UniProt P02545 250-400); experiment: pull-down; His-tagged lamin 250-400 fragments on Ni-NTA resin with the lamin 1-125 fragment; nonreducing (oxidized) condition; SDS-PAGE
T5 construct: lamin A/C, human, residues 250-400 (C-terminal part of coil 2); pProEx-HTa vector: a TEV protease cleavage site stands between the His-tag and the lamin residues; also called His-lamin 250-400 WT; source: E. coli BL21 (DE3), purified (cobalt-Talon, HiTrap Q, SEC); not shown: His-tag, N-terminal, kept
T5 sequence (looked up): T1 sequence (looked up)

B1: His-tagged lamin A/C 1-125 fragment, wild type (domain or fragment, human, UniProt P02545 1-125, looked up)
chain: METPSQRRATRSGAQASSTPLSPTRITRLQEKEDLQELNDRLAVYIDRVRSLETENAGLRLRITESEEVVSREVSGIKAAYEAELGDARKTLDSVAKERARLQLELSKVREEFKELKARNTKKEG
notes: pProEx-HTa vector: a TEV protease cleavage site stands between the His-tag and the lamin residues; also called coil 1a fragment; source: E. coli BL21 (DE3), purified (cobalt-Talon, HiTrap Q, SEC); not shown: His-tag, N-terminal, kept
B1: binds [1]; binds [2]; binds [3].

B2: lamin A/C 1-125 fragment, wild type, prey of Figure 6b (domain or fragment, human, UniProt P02545 1-125, looked up)
chain: B1 chain
notes: the pull-down methods say that preys were His-tag cleaved lamin proteins; the purification paragraph names TEV cleavage only for lamin 250-400; also called coil 1a fragment; source: E. coli BL21 (DE3), purified (cobalt-Talon, HiTrap Q, SEC); not shown: His-tag, N-terminal, cleaved
B2: binds [4]; binds [5].
